# Positions count from the first letter of the chain named.
# T1: murine ApoE (mouse, UniProt P08226 19-311)
# T1 sequence (looked up): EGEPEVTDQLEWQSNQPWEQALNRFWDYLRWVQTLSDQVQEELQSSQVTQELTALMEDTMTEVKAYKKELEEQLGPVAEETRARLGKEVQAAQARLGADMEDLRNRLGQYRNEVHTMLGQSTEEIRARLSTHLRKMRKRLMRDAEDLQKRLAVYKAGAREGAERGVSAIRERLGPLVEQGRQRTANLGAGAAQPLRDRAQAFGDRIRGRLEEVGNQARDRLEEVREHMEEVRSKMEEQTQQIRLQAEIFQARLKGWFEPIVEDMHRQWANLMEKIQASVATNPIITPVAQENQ
# T2: ApoE4 amino acids 1-164, expressed on yeast (human, UniProt P02649 19-182)
# T2 construct: with myc tag, on yeast cells; range counts on the mature protein; also called up to helix 4; not shown: myc tag and yeast surface-display partner
# T2 chain: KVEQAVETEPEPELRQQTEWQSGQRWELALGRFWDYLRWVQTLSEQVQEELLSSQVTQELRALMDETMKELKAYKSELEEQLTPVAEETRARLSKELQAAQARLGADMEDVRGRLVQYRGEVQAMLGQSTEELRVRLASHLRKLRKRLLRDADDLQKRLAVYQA
# T3: ApoE4 amino acids 1-210, expressed on yeast (human, UniProt P02649 19-228)
# T3 construct: with myc tag, on yeast cells; range counts on the mature protein; also called N terminal domain; not shown: myc tag and yeast surface-display partner
# T3 chain: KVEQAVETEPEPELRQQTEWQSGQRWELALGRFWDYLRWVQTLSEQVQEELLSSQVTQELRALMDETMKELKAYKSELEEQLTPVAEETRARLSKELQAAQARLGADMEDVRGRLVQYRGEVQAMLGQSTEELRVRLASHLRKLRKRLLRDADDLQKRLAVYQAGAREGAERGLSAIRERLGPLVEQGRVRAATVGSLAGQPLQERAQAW
# T4: ApoE4 amino acids 24-164, expressed on yeast (human, UniProt P02649 42-182)
# T4 construct: with myc tag, on yeast cells; range counts on the mature protein; also called helix1 + 2 + 3 + 4
# T4 chain: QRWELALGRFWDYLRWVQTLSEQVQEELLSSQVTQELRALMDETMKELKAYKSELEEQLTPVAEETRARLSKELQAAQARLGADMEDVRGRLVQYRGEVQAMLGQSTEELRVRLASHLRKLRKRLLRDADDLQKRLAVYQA
# T5: ApoE4 amino acids 54-164, expressed on yeast (human, UniProt P02649 72-182)
# T5 construct: with myc tag, on yeast cells; expression in yeast printed as Low; range counts on the mature protein; also called helix2 + 3 + 4
# T5 chain: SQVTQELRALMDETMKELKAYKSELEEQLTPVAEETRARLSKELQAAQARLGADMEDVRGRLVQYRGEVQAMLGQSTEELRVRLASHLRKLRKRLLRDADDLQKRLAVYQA
# B1: HJ152 (antibody, V domains shown)
# VH: EVKLEESGGGLVQPGGSMKLSCAASGFSFSDAWMDWVRQSPEKGLEWVAEIRNKADNHATFYAESVKGRFTISRDDSKSSVYLQMNSLRAEDSGIYYCLLWDYWGQGTTLTVSS
# VL: DIVMSQSPSSLAVSAGEKVTMSCKSSQSLLNSRTRKHFLAWYQQKPGQSPKVLIYWASSRESGVPDRFTGSGSGTDFTLTISSVQAEDLAVYYCKQSCNLPWTFGGGTKLEIKR
# notes: murine monoclonal antibody from hybridoma; also called HJ152B (biotinylated)
# B2: HJ159 (antibody, V domains shown)
# VH: QVQLQQSGPDLVKPGASVKISCKASGYTFIDYYINWAKQRPGQGLEWIGWIFPGSGSTYYNEKFKGKATLTVDKSSSTAYMFLSSLTSEDSAVFFCARYYGSSPFAYWGQGTLVTVSA
# VL: DVLMTQTPLSLPVSLGDQASISCRSSQNIVYSNGNTYLEWYLQKPGQSPKLLIYKVSNRFSGVPDRFSGSGSGTYFTLKISRVEAEDLGIYYCFQGSHVPYTFGGGTKLEIKR
# notes: murine monoclonal antibody from hybridoma
# B3: HJ1513 (antibody, V domains shown)
# VH: QIQLQQSGPELVKPGASVKISCKASGYTFTDYYINWVRQRPGQGLEWIGWIYPESFNTYYNEKFKGKATLTVDTSSNTAYMQLSSLTSEDSAVYFCARYYVSSPFAYWGQGTLVTVSA
# VL: B2 VL with V30I, Y31H, Y41F, Y75D, I90V
# notes: as for B2
# B4: HJ1518 (antibody, V domains shown)
# VH: B2 VH with D10E, I30S, A37V, T58S, S77R, F82L, F94Y, A118T
# VL: B2 VL with T7S, N28S, Y31H, S32R, Y75D, I90V, K112R
# notes: as for B2
# B5: HJ1514 (antibody, V domains shown)
# VH: B1 VH with K3N, S28T, F61Y, D75N, A90T, S93T, L99V
# VL: B1 VL with S22T, H37N, A40T, Q43R, V52P, T69A, C98Y
# notes: as for B2
# B6: HJ1531 (antibody, V domains shown)
# VH: EVQFVESGGGLVQPKGSLKLSCAASGFSFNIYAMNWVRQAPGKGLEWVARIRSKSNDYATFYADSVKDRFTISRDDSESMLYLQMNNLKIEDTAMYYCVSPYDGALAYWGQGTSVTVSS
# VL: DIQMNQSPSSLFASLGDTITITCHASQNINVWLSWYQQKPGNIPKLLIYKASNLHTGVSSRFSGSGSGTDFTLTINNLQPEDIATYYCQQGQSYPLTFGAGTKLELKR
# notes: as for B2
# B7: HJ1536 (antibody, V domains shown)
# VH: EVQFVESGGGLVQPKGSLKLSCEVSGFSFNTYAMNWVRQAPGKGLEWVARIRNKTNNYATFYADSVKDRFTISRDDSKNTLYLQMNNLKAEDTAMYFCASPYDGSFAYWGQGTLVTVSA
# VL: B6 VL with F12S, V31I, S59P, D70G, N76S, N77S, Q92H, A100G, L106I
# notes: as for B2
# B8: HJ158 (antibody, V domains shown)
# VH: EVQLMESGGDLVKPGGSLELSCTVSGFTFNNYAMSWIRQTPEKRLEWVATISDGGTNTYFPDNVKGRFTISRDNAKSNLYLQMSHLQSEDTAMYYCAREGRGTWFAYWGQGTLVTVSA
# VL: DVVMTQTPLSLPVSLGDQASISCRSSQSLVHINGNTYLHWSLQKPGQSPKLLIYKVSNRFSGVPDRFSGSGSGTDFTLKISRVEAEDLGIYFCSQNTHLPLTFGAGTKLELKR
# notes: as for B2
# Molecular target: T1, murine ApoE
# Experiment: Western blot of mouse brain lysates
# Text: Brain lysates from apoE KO mice or mice expressing human apoE3, human apoE4 or murine apoE were immunoblotted with HJ151, HJ152, HJ153, and HJ154. A commercial apoE antibody GA-50 was used as a positive control.
row,binding result,Binder
1,no binding,B1

# Molecular target: T2, ApoE4 amino acids 1-164, expressed on …
# Experiment: yeast display of myc-tagged ApoE4 fragment, antibody staining
# Protocol: (§1) Epitope binding of various anti-ApoE antibodies was evaluated multiple ways. Different sequences of human ApoE were expressed on the surface of yeast by yeast display using different plasmids. Different anti-ApoE antibodies were then assessed to determine binding to the different ApoE sequences by immunofluorescence of the yeast cell surface (Table 4). Because none of the anti-ApoE antibodies tested here recognize murine ApoE, the epitope was further narrowed down by comparison of the murine and human ApoE sequences as shown in Tables 4 and 5. DNA constructs containing different regions of ApoE4 with myc tag were transformed into yeast cells. Yeast cells were incubated with HJ15x to detect binding or anti-myc antibody to detect expression.
row,binding result,Binder
1,binds,B2
2,binds,B3
3,binds,B4
4,binds,B1
5,binds,B5

# Molecular target: T3, ApoE4 amino acids 1-210, expressed on …
# Experiment: as above
# Protocol: as §1
row,binding result,Binder
1,binds,B2
2,binds,B3
3,binds,B4
4,binds,B1
5,binds,B5

# Molecular target: T4, ApoE4 amino acids 24-164, expressed on …
# Experiment: as above
# Protocol: as §1
row,binding result,Binder
1,binds,B2
2,binds,B3
3,binds,B4
4,binds,B1
5,binds,B5

# Molecular target: T5, ApoE4 amino acids 54-164, expressed on …
# Experiment: as above
# Protocol: as §1
row,binding result,Binder
1,binds,B2
2,binds,B3
3,binds,B4
4,binds,B1
5,binds,B5

# Molecular target: T6, recombinant alipidated human ApoE4 (human, UniProt P02649 19-317)
# T6 construct: mature; full length recombinant protein made in E. coli or bought; biotinylated for SPR; position 112 is counted on the mature protein, not on the precursor entry; also called recApoE; non-lipidated ApoE4
# Experiment: direct ELISA on coated recombinant alipidated ApoE (0.5 ug/ml)
# Protocol: (§2) ELISA dose response curves were generated for several anti-ApoE antibodies. Briefly, plates were coated overnight with full length recombinant alipidated ApoE2, ApoE3, or ApoE4 (0.5 μg/ml). The following days, plates were washed, blocked and then incubated with an anti-ApoE antibody. A goat, anti-mouse IgG-HRP antibody was used for secondary detection. Recombinant alipidated ApoE was either expressed solubly in E. coli and then purified, or purchased from a commercial supplier.
# Target sequence in this assay (P02649 19-317 C130R): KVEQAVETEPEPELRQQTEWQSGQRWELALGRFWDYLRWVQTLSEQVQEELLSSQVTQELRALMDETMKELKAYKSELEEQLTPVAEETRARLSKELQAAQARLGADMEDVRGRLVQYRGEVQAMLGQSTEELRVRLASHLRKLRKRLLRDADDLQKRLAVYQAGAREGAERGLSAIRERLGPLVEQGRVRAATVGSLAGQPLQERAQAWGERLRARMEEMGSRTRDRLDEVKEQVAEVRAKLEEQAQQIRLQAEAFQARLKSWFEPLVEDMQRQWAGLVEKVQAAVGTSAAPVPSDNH
row,EC50 [nM],Binder
1,0.32,B2
2,0.46,B3
3,0.06,B4
4,0.04,B6
5,0.05,B7
6,0.35,B1
7,0.04,B5
8,0.06,B8

# Molecular target: T7, recombinant alipidated human ApoE3 (human, UniProt P02649 19-317)
# T7 construct: mature; full length recombinant protein made in E. coli or bought
# Experiment: as above
# Protocol: as §2
# T7 sequence (P02649 19-317): as the sequence (P02649 19-317 C130R) above, with R112C counted along it
row,EC50 [nM],Binder
1,1.9,B2
2,1.26,B3
3,0.258,B4
4,0.05,B6
5,0.1,B7
6,0.13,B1
7,0.23,B5
8,0.09,B8

# Molecular target: T8, recombinant alipidated human ApoE2 (human, UniProt P02649 19-317)
# T8 construct: mature; full length recombinant protein made in E. coli or bought
# Experiment: as above
# Protocol: as §2
row,EC50 [nM],Binder
1,~100,B3
2,0.05,B6
3,0.09,B7
4,~100,B5
5,0.07,B8

# Molecular target: T6, recombinant alipidated human ApoE4
# Experiment: SPR (Biacore T200), biotinylated ApoE4 captured on anti-biotin mAb chip, antibody injected, 1:1 fit
# Protocol: The affinity of several anti-ApoE antibodies for ApoE4 was determined by surface plasmon resonance using a BIAcore T200. Anti-biotin monoclonal mouse antibody was immobilized on a Biacore Series S CM5 sensor chip. Biotinylated recombinant alipidated ApoE4 was then captured on to the chip. Serial dilutions of each antibody were injected at a flow rate of 30 μl/min. Each sample was analyzed, for example, with 3-minute association and 10-minute dissociation. After each injection the chip was regenerated using 3 M MgCl₂ or another appropriate buffer. Binding response was corrected by subtracting the response units (RUs) from a flow cell capturing an irrelevant IgG at similar density. A 1:1 Languir model of simultaneous fitting of Kₒₙ and Koff was used for kinetics analysis. Recombinant alipidated ApoE4 was either expressed in soluble form in E. coli and then purified, or purchased from a commercial supplier.
Kd [nM],koff [s⁻¹],kon [M⁻¹ s⁻¹],Binder
391,0.0074,18900,B2
135,0.000858,6360,B3
206,0.00946,45900,B4
249,0.00116,4660,B1
< 0.781,< 1e-05,12800,B5
